According to patent publication US20220242943A1:

What was measured:
human PDGF-AB (human) [1] = biological target: human PDGF-AB (human) (UniProt P04085); assay: cell-based or functional assay
human PDGF-BB (human) [2] = biological target: human PDGF-BB (human) (UniProt P01127); assay: cell-based or functional assay
human PDGF-BB (human) [3] = biological target: human PDGF-BB (human) (UniProt P01127); assay: SPR 25C, mAb captured on anti-hFc; analyte Human PDGF-BB homodimer (R&D)
[4] = biological target: Cynomolgus monkey PDGF-BB (cynomolgus monkey (Macaca fascicularis)); assay: SPR 25C, mAb captured on anti-hFc; analyte Monkey PDGF-BB homodimer (Kingfisher)
human PDGF-BB (human) [5] = biological target: human PDGF-BB (human) (UniProt P01127); assay: blocking ELISA: 60 pM Biot-PDGF-BB on 1 ug/ml hPDGFRb-mmH; IC50 cell NB (Non-Blocker)
human PDGF-AB (human) [6] = biological target: human PDGF-AB (human) (UniProt P04085); assay: blocking ELISA: 100 pM Biot-PDGF-AB on 1 ug/ml hPDGFRb-mmH; IC50 cell NB (Non-Blocker)
[7] = biological target: human PDGFRβ on HEK293/SRE-luc/hPDGFRβ cells (human) (UniProt P09619); assay: cell-based or functional assay
human PDGFRβ on HEK293/SRE-luc/hPDGFRβ cells (human), sequence (P09619 33-1106): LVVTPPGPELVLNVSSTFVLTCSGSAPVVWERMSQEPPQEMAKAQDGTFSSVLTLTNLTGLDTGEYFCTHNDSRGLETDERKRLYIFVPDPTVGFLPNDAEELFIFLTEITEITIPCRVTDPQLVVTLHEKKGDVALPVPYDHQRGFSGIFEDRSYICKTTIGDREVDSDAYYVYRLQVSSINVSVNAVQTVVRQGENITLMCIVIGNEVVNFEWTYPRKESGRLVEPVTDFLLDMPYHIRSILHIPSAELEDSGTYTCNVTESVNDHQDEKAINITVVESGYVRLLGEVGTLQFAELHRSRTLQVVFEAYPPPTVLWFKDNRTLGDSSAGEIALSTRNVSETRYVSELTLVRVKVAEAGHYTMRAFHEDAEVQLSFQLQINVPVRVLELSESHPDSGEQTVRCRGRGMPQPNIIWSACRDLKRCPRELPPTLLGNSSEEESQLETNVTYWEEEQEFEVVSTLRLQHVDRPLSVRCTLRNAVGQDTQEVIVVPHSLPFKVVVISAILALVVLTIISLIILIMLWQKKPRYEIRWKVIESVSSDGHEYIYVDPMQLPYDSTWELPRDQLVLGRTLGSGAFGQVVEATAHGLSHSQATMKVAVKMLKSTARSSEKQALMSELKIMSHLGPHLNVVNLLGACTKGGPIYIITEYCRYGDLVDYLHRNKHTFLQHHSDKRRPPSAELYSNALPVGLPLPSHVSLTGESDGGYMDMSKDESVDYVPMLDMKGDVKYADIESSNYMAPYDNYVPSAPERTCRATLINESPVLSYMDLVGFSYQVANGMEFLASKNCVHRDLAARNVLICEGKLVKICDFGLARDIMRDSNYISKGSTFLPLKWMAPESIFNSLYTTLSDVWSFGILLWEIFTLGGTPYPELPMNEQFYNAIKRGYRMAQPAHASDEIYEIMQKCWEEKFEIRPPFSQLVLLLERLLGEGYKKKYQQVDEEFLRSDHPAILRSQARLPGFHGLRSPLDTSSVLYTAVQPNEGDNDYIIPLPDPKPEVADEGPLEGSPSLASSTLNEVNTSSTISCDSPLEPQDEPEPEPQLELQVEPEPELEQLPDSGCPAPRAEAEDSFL

Cynomolgus monkey PDGF-BB (cynomolgus monkey (Macaca fascicularis)), sequence (chain, as listed by the source): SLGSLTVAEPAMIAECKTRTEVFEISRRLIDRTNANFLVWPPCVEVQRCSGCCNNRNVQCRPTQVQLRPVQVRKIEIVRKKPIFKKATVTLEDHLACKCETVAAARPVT

A647 Intensity, internalization in NHLF, pre-blocking Ab: NA (human PDGF-AB (human) [1]) | A647 Intensity, internalization in PASMC, pre-blocking Ab: NA (human PDGF-AB (human) [1]) | Fold Change vs REGN1945, internalization in NHLF, pre-blocking Ab: NA (human PDGF-AB (human) [1]) [fold] | Fold Change vs REGN1945, internalization in PASMC, pre-blocking Ab: NA (human PDGF-AB (human) [1]) [fold] | A647 Intensity, internalization in NHLF, pre-blocking Ab: NA (human PDGF-BB (human) [2]) | A647 Intensity, internalization in PASMC, pre-blocking Ab: NA (human PDGF-BB (human) [2]) | EC50 of subsequent PDGF-BB calcium flux in PASMC after 3 hr pre-treatment with antibody-PDGFBB (10:1 nM) (human PDGF-BB (human) [2]) [pM] | Fold Change vs REGN1945, internalization in NHLF, pre-blocking Ab: NA (human PDGF-BB (human) [2]) [fold] | Fold Change vs REGN1945, internalization in PASMC, pre-blocking Ab: NA (human PDGF-BB (human) [2]) [fold] | Max-Min at 5 nM PDGF-BB (RFU), PASMC after 3 hr pre-treatment with antibody-PDGFBB (human PDGF-BB (human) [2]) [RFU] | Max-Min at 5 nM PDGF-BB (RFU), PASMC after 24 hr pre-treatment with antibody-PDGFBB (human PDGF-BB (human) [2]) [RFU] | Max-Min at 5 nM PDGF-BB (RFU), PASMC after 48 h pre-treatment with antibody-PDGFBB (human PDGF-BB (human) [2]) [RFU] | 30nM hPDGF-BB (R&D) Bound (RU) (human PDGF-BB (human) [3]) | 30nM mfPDGF-BB (KingFisher) Bound (RU) [4] [RU] | % blocking at 100 nM Ab (human PDGF-BB (human) [5]) [%] | % blocking at 100 nM Ab (human PDGF-AB (human) [6]) [%] | EC50 of ligand, SRE-luciferase in HEK293/SRE-luc/hPDGFRβ cells [7] [nM] | Substance
624000 | 464000 | 1 | 1 | 573000 | 483000 | 600 | 1 | 1 | 3950 | 1460 | 492 | 6.7 | 6.8 | -6 | 21 | – | REGN1945 (antibody)
– | – | – | – | – | – | – | – | – | – | – | – | – | – | – | – | 8.6 | human PDGF-AB (from UniProt P04085 87-211) (ligand)
– | – | – | – | – | – | – | – | – | – | – | – | – | – | -5 | 18 | – | isotype - mIgG (REGN 751) (antibody)
